Measured values taken from patent publication US20230220074A1 (Alector, published 2023).
Numbering of substitutions follows the chain as printed.

B1: hPA-001 (antibody, V domains shown)
VH: QVTLKESGPGILQPSQTLSLTCSFSGFSLTTFGMGVGWIRQPSGKGLEWLAHIWWDDDKYYNPALKSRLTISKDISKNQVFLKIANVDTADTATYYCARIEDYGNPFDYWGQGTTLTVSS
VL: DIQMNQSPSSLSASLGDTITITCHASQNIHVWLSWYQQKPGNIPKLLIYKASNLHTGVPSRFSGSGSGTGFTLTISSLQPEDIATYYCQQGQSYPLTFGAGTKLELK
notes: Mouse hybridoma antibody, tested as conditioned medium
B2: hPA-004 (antibody, V domains shown)
VH: QVTLKESGPGMLQPSQTLSLACSFSGFSLNSFGVAVGWIRQPSGKGLEWLAHIWWDDDKSYNPALKSRLTISKDTSKNQVFLKLANVDTADTATYYCTRIADYGNHFDYWGQGTALTVSS
VL: B1 VL with I29S, S77G, S93T, L96F, A100S, L106I
notes: Mouse hybridoma antibody, tested as conditioned medium or purified
B3: hPA-005 (antibody, V domains shown)
VH: QVILKESGPGILQSSQTLSLTCSFSGFSLSTFGMGVGWIRQPSGKGLESLAHIWWDDDKFYNPALKSRLTISKDTSKSQVFLKIANVDTADIATYYCTRIEDYGSYFAYWGQGTTLTVSS
VL: B1 VL with I2V, T18P, S34N, K39R, K45R, L96Y, A100G, L106I
notes: as for B2
B4: hPA-002 (antibody, V domains shown)
VH: B1 VH with K5Q, T30S, I75T, N86S, T92I, I100V
VL: B1 VL with S34N, L73V
notes: Mouse hybridoma antibody, tested as conditioned medium or purified; also called hPA-002 A647

Target: T1, human PILRA (human, UniProt Q9UKJ1 20-303)
T1 construct: also called hPILRA
T1 sequence (Q9UKJ1 20-303): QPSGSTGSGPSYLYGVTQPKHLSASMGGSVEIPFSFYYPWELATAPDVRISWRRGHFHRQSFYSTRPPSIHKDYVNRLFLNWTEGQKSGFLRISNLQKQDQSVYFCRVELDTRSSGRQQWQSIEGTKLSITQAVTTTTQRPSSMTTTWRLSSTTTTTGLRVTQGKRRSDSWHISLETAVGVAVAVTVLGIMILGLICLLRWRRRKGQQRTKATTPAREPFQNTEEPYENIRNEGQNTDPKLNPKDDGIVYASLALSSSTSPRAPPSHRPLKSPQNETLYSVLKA
Test: flow cytometry, hybridoma conditioned medium on 293 cells expressing the target; MFI relative to 293 parental cells
Procedure: (§1) Antibodies against human PILRA were generated as follows. […] PILRA^{-/-} PILRB1^{-/-} PILRB2^{-/-} mice were immunized with human PILRA protein, and hybridomas prepared using standard methods. 300 conditioned media samples containing antibodies were assessed for binding to parental 293 cells or 293 cells ectopically expressing hPILRA, hPILRB, cPILRA, mPILRA, or mPILRB by FACS. […] Six antibodies were identified as human PILRA binders using a cutoff of greater than 5-fold binding. […] No antibody was identified that bound mouse PILRA.

Point of comparison: B1, “MFI relative to 293 parental cells” value 131 fold over 293 parental cells. Against it:
- B2 — lower, 83.9 fold over 293 parental cells
- B3 — lower, 104 fold over 293 parental cells
- B4 — higher, 133 fold over 293 parental cells

Target: T2, cynomolgus monkey PILRA (cynomolgus monkey)
T2 construct: Ectopically expressed on 293 cells; also called cPILRA
T2 sequence (chain, as listed by the source): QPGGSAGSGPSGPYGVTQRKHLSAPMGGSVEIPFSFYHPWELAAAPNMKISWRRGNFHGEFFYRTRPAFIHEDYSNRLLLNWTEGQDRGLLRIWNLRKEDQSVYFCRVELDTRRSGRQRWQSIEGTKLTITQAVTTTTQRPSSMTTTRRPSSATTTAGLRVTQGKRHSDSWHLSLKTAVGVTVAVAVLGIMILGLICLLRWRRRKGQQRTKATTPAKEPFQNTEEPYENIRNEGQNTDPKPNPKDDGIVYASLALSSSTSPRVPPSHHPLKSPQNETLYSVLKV
Test: as above
Procedure: as §1

Point of comparison: B4, “MFI relative to 293 parental cells” value 0.3 fold over 293 parental cells. Against it:
- B1 — higher, 0.5 fold over 293 parental cells
- B3 — higher, 0.5 fold over 293 parental cells

Target: T3, human PILRB (human, UniProt Q9UKJ0 20-227)
T3 construct: Ectopically expressed on 293 cells; also called hPILRB
T3 sequence (Q9UKJ0 20-227): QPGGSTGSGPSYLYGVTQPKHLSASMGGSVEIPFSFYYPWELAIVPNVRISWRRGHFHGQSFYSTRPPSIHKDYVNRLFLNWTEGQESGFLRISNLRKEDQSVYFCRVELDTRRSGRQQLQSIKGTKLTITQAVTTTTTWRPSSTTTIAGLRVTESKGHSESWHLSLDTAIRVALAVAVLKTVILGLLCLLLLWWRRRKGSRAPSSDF
Test: as above
Procedure: as §1

Point of comparison: B4, “MFI relative to 293 parental cells” value 1.2 fold over 293 parental cells. Against it:
- B1 — higher, 1.3 fold over 293 parental cells
- B3 — higher, 1.3 fold over 293 parental cells

Target: T4, murine PILRB (mPILRB1) (mouse, UniProt Q2YFS2 29-224)
T4 construct: whole, on cells; Ectopically expressed on 293 cells; also called mouse PILRB
T4 sequence (Q2YFS2 29-224): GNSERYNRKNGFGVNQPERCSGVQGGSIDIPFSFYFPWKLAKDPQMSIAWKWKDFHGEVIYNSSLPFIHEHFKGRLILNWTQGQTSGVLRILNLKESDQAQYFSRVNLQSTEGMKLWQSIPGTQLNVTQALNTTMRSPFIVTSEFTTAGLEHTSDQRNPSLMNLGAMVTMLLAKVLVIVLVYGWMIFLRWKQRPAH
Test: as above
Procedure: as §1

Point of comparison: B2, “MFI relative to 293 parental cells” value 0.6 fold over 293 parental cells. Against it:
- B1 — lower, 0.5 fold over 293 parental cells
- B3 — lower, 0.5 fold over 293 parental cells
- B4 — lower, 0.3 fold over 293 parental cells

Target: T5, murine PILRA (mouse, UniProt Q2YFS3 32-302)
T5 construct: Ectopically expressed on 293 cells; also called mPILRA; mouse PILRA
T5 sequence (Q2YFS3 32-302): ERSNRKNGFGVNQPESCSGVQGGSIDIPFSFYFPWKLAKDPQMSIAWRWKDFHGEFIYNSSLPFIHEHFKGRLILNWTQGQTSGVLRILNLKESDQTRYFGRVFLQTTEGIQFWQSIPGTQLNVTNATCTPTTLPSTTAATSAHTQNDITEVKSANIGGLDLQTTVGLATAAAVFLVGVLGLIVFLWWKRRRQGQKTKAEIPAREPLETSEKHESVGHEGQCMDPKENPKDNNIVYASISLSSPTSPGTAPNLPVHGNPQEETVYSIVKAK
Test: as above
Procedure: as §1

Point of comparison: B2, “MFI relative to 293 parental cells” value 0.6 fold over 293 parental cells. Against it:
- B1 — lower, 0.5 fold over 293 parental cells
- B3 — lower, 0.4 fold over 293 parental cells
- B4 — lower, 0.3 fold over 293 parental cells

Target: T6, soluble human PILRA hIgG1 Fc construct (human)
T6 construct: also called PILRA Fc; PILRA-Fc
T6 sequence (chain, as listed by the source limits assumed): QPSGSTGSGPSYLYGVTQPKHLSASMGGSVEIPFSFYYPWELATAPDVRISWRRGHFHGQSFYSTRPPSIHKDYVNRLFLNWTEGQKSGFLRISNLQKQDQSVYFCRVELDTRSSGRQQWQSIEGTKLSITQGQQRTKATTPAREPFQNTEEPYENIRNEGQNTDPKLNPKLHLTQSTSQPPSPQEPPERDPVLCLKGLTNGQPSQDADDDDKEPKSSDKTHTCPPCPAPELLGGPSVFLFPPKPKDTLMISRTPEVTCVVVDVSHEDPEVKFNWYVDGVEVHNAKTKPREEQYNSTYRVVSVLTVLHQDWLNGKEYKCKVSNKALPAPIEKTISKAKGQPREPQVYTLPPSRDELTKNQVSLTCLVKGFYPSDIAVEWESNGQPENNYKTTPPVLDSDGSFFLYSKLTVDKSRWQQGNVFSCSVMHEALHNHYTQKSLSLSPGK
Test: flow cytometry; blocking of PILRA Fc binding to human CD3+ T cells, 3 donors, average ± SEM
Procedure: Purified anti-hPILRA antibodies were evaluated for their ability to block binding of PILRA Fc to human CD3+ T cells from 3 separate donors in order to calculate the ligand blocking potency of these antibodies.

Point of comparison: B3, IC50 1.9 nM. Against it:
- B2 — within 1.5-fold, 1.7 nM
- B4 — 2.5-fold lower, 0.75 nM

Target: T5, murine PILRA
Test: flow cytometry, conditioned medium on 293 cells expressing the target
Procedure: as §1

B1: no binding (tested: cutoff of greater than 5-fold binding).
B2: no binding (tested: cutoff of greater than 5-fold binding).
B3: no binding (tested: cutoff of greater than 5-fold binding).
B4: no binding (tested: cutoff of greater than 5-fold binding).
